The values below come from patent US20020164609A1 (SCHERING, published 2002).

Assay [1] addresses T1, Flag-tagged human WSX-1/TCCR on Ba/F3 cells (F-hWSX-1) (human, UniProt Q6UWB1 33-636).
T1 construct: Retroviral pMX construct expressed on the surface of Ba/F3 cells; also called hNR30; F-tagged WSX-1/TCCR
T1 sequence: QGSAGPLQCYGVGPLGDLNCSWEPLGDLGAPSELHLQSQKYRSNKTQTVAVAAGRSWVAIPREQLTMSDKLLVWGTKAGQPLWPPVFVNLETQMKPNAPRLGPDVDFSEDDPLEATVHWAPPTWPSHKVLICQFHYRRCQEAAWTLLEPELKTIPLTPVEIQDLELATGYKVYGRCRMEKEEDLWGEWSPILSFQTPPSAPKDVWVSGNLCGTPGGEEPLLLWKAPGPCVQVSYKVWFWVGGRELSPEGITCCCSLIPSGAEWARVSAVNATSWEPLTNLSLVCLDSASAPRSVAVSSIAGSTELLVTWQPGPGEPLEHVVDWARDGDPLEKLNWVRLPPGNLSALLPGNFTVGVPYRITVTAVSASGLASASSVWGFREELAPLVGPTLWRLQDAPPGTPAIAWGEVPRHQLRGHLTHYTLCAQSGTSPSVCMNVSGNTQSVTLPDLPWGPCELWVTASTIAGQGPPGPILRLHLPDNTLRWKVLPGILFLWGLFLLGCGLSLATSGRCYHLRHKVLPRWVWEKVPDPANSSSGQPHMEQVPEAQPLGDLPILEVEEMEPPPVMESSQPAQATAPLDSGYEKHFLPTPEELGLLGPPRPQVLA
Kind of assay: flow cytometry on BaF3 cells expressing F-hWSX-1, two hours incubation.

In assay [2] the target is T2, soluble human WSX-1/TCCR with C-terminal RGSH6 tag (shWSX-1-R) (human, UniProt Q6UWB1 33-516).
T2 construct: Produced in HEK293T supernatants; also called shNR30R; soluble hWSX-1-R
T2 sequence: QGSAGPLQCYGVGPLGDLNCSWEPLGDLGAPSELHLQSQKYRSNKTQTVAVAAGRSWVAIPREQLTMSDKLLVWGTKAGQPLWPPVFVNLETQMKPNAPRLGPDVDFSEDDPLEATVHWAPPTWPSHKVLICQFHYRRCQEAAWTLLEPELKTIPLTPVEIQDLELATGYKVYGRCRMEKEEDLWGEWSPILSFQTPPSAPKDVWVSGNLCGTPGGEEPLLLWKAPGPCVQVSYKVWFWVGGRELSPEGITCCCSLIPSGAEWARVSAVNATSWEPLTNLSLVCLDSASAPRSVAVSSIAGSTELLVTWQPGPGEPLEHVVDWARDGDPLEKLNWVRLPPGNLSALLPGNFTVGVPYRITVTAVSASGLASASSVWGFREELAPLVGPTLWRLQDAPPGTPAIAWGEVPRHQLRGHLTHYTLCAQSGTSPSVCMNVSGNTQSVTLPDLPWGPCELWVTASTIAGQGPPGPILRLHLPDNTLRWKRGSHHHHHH
As to the kind of experiment: co-immunoprecipitation and western blot; F-hEBI3 alone against shWSX-1-R supernatant. The protocol: The primary pricipitates were washed and then incubated with HEK293T cell supernatants containing shWSX-1-R. Secondary precipitates were separated by SDS-PAGE and subjected to western blot. Precipitaited proteins were visualized by ECL using antibodies against the respective protein tags.

Assay [3] has as its target T3, Flag-tagged mouse WSX-1 on BaF3 cells (F-mWSX-1) (mouse, UniProt O70394 25-623).
T3 construct: whole, on cells; Retroviral pMX construct expressed on the surface of Ba/F3 cells
T3 sequence (looked up): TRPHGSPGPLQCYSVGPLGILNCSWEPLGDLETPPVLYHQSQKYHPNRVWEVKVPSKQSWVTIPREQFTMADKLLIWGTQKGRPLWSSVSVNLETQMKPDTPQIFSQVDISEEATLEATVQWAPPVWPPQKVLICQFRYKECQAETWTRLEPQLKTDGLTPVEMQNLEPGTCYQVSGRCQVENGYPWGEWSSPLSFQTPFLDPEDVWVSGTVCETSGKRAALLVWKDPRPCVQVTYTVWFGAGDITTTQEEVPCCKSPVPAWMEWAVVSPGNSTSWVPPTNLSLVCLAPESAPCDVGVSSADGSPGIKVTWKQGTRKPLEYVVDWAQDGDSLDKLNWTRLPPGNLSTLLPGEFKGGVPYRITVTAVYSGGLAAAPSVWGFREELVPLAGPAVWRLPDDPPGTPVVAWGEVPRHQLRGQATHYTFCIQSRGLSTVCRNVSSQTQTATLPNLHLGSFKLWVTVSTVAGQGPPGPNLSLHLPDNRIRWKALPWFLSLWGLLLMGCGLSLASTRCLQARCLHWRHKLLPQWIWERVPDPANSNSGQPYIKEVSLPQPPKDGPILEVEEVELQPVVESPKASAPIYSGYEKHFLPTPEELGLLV
Kind of assay: flow cytometry on mWSX-1-expressing BaF3 cells.

B1: human EBI3-Ig fusion (hEBI3-Ig) (Fc fusion)
chain: RKGPPAALTLPRVQCRASRYPIAVDCSWTLPPAPNSTSPVSFIATYRLGMAARGHSWPCLQQTPTSTSCTITDVQLFSMAPYVLNVTAVHPWGSSSSFVPFITEHIIKPDPPEGVRLSPLAERHVQVQWEPPGSWPFPEIFSLKYWIRYKRQGAARFHRVGPIEATSFILRAVRPRARYYVQVAAQDLTDYGELSDWSLPATATMSLGK
notes: Secreted fusion protein; also called EB133-Ig (so in the source); not shown: Ig part from the pME18S-Ig vector
In the case of B1, the binding result in assay [1] is “no binding”.

B2: Flag-tagged human EBI3 (F-hEBI3) (other)
chain: RKGPPAALTLPRVQCRASRYPIAVDCSWTLPPAPNSTSPVSFIATYRLGMAARGHSWPCLQQTPTSTSCTITDVQLFSMAPYVLNVTAVHPWGSSSSFVPFITEHIIKPDPPEGVRLSPLAERHVQVQWEPPGSWPFPEIFSLKYWIRYKRQGAARFHRVGPIEATSFILRAVRPRARYYVQVAAQDLTDYGELSDWSLPATATMSLGK
notes: Mature portion of human EBI3 cloned into pFlagCMV-1, produced in HEK293T cells; also called human Epstein-Barr virus-induced gene 3; not shown: N-terminal Flag tag from pFlagCMV-1
As for B2, in assay [2], the binding result is reported as “no binding”.

B3: E-tagged mouse IL-D80 (mIL-D80-E) (ligand)
chain: FPTDPLSLQELRREFTVSLYLARKLLSEVQGYVHSFAESRLPGVNLDLLPLGYHLPNVSLTFQAWHHLSDSERLCFLATTLRPFPAMLGGLGTQGTWTSSEREQLWAMRLDLRDLHRHLRFQVLAAGFKCSKEEEDKEEEEEEEEEEKKLPLGALGGPNQVSSQVSWPQLLYTYQLLHSLELVLSRAVRDLLLLSLPRRPGSAWDS
notes: also called mp28-E; mouse p28; not shown: E-tag from the pCDM8-etag vector
Turning to B3, the binding result in assay [3] is recorded as “no binding”.

B4: mouse EBI3-Ig fusion (mEBI3-Ig) (Fc fusion, UniProt O35228 19-228, looked up)
chain: YTETALVALSQPRVQCHASRYPVAVDCSWTPLQAPNSTRSTSFIATYRLGVATQQQSQPCLQRSPQASRCTIPDVHLFSTVPYMLNVTAVHPGGASSSLLAFVAERIIKPDPPEGVRLRTAGQRLQVLWHPPASWPFPDIFSLKYRLRYRRRGASHFRQVGPIEATTFTLRNSKPHAKYCIQVSAQDLTDYGKPSDWSLPGQVESAPHKP
notes: mature; Secreted fusion protein; not shown: Ig part from the pME18S-Ig vector
Regarding B4, in assay [3], the binding result is “no binding”.
